From the supplement of paper PMC12042874
± gives the uncertainty stated by the source.

Test: amyloid nucleation score (Sup35N fusion, yeast selection) (log enrichment); library NNK1; higher = more nucleation; inactive = no reads after selection
In short: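 Three technical output replicates were used for random libraries. Psi-negative yeast expressing peptides of 20 random codons fused to Sup35N were induced with 100 μM copper sulfate for 24 hours and grown 7 days at 30°C on medium lacking adenine and uracil, and input and output plasmid inserts were Illumina-sequenced, excluding sequences with under 100 input reads. The nucleation score is the DiMSum log enrichment of output over input reads, centred on the mode score of non-aggregating sequences.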

Row | Substance | amyloid nucleation score
1 | SSFSLGSTLF | 0.597 ± 0.52
2 | ARLENVTHFRFLQTNLGYIE | 0.082 ± 0.67
3 | DYTRC | 0.391 ± 0.97
4 | LRAVTWLRYAYQGLFDVDV | -0.07 ± 0.56
5 | NWNVGTQTKHVDNFLHKVIN | -0.315 ± 0.74
6 | QELICMGSEYVFPNWTSFRA | -0.412 ± 0.49
7 | QRECWMYMMFMGYHLLEAQV | 0.215 ± 1.2
8 | TLKHLNATISHT | 1.1 ± 0.71
9 | VDNSCFRGT | -0.391 ± 0.66
10 | DIGAVIAWSNRLVWLQPTLL | -0.506 ± 0.84
11 | ENARHRCDQ | 0.571 ± 0.38
12 | LPSIYSFSSCNVVEDEGQM | -0.685 ± 1.2
13 | SQLARLLFIAGIVPTRARVI | 0.144 ± 0.64
14 | WVARVMCRKNSYSMLIMWIC | -0.102 ± 0.22
15 | VECLAAVNYGEVHDPGVMDR | 0.417 ± 0.71
16 | GVKQEHVIPWQEVLGVITL | 1.01 ± 0.84
17 | FFGLFQLETWA | 0.02 ± 0.37
18 | IIRDSFKNRPETAYTHRTWD | 1.13 ± 0.15
19 | DPSSLNSGPCLHMAGGCGNQ | -0.249 ± 1.7
20 | CSVGASAIGNM | 0.717 ± 0.59
21 | YFCCALSNLLFRKSKHDRVR | 6.872 ± 0.068
22 | MEVISRSVLSSLSWFGTVEE | 0.598 ± 0.5
23 | ATSLSCKSKFPMTDVAHLHH | 0.406 ± 0.2
24 | LFSWICEN | 0.142 ± 0.28
25 | WLLWLTSSYKHQWMT | -1.7 ± 1.4

Row | Substance | amyloid nucleation score
26 | RLLGYLAGVGNVKICRPSAV | 0 ± 1
27 | HYGSWLCELDVVLYCDCSVM | 0.021 ± 0.62
28 | GQRLLL | 1.07 ± 0.56
29 | VWFIVLSRGQFHICFYGQG | -1.32 ± 2.7
30 | NVHVFRNRSEITFKRASSWE | 1.08 ± 0.9
31 | SQDGISMMLGMSGWRGHASV | 0.659 ± 1
32 | PFTYYFEVQLILRKT | 0.773 ± 0.79
33 | SNSFYREVNWGNRT | 0.216 ± 0.57
34 | VIHVSTYDSGVLPLKEDGTF | 0.151 ± 0.4
35 | GRMAMWYGTPKGGCCHKSLY | inactive
36 | RYVNRT | -0.497 ± 1.2
37 | LNAESLMSRFVCGMFVVTKG | 0.112 ± 1.2
38 | LVAFRYLRSGSSRLKFSVLF | -0.787 ± 0.48
39 | GLTWKTFPSCPMSENNCIRH | 0.133 ± 0.79
40 | LDLAGGKG | 1.74 ± 0.14
41 | QKIDNSIGQFYRKI | -1.15 ± 0.59
42 | LEVYGQCDRVHCHSSR | -0.276 ± 0.5
43 | TYDQTRMTVHRSSSIERART | 0.173 ± 1.4
44 | NLFLVIPAFDLLMFGSERSS | 5.55 ± 0.063
45 | ATREQDFWWFDER | -1.48 ± 1.2
46 | SSTILQLCSPNRRLRSTKLG | 1.97 ± 0.7
47 | ANMHRVKAYCHIFGLSHETE | -0.775 ± 0.73
48 | GLLIFMITTLPFCFWCTVPR | inactive
49 | GRDDSGWPSVVVWSPGADQA | 0.243 ± 0.56
50 | HSGNTLIQMCVI | -0.083 ± 0.61

Row | Substance | amyloid nucleation score
51 | MIRQYDCSVFKCRERYFWAF | 0.675 ± 0.85
52 | MCTLDLD | 0.824 ± 0.54
53 | FVLCFFLACGITRNGMPCMV | 1.26 ± 0.76
54 | LCWVYHYKGFKRGVCRRCES | -0.86 ± 1.6
55 | SAPIDISMQLC | -0.18 ± 1.7
56 | ITCSHPQRMLVCSCKSPWCF | 3.31 ± 0.13
57 | VWKDRPEMYSCGHCIEMRAE | 0.039 ± 0.37
58 | LMAPLCICKNFRPELWFNRI | -0.115 ± 0.58
59 | NTVFL | 0.549 ± 0.39
60 | YTVSTRWRGVNIPYVKHAAL | 0.499 ± 0.25
61 | TFLNFWPQFCMEFY | 5.98 ± 0.06
62 | AYTLRYTFRYKYWLRYRLAG | 0.861 ± 0.58
63 | AVKYRGNVMFKIRHIMLKCM | 0.023 ± 0.42
64 | YYSGGFIMVVHLWSVELRFR | 0.23 ± 0.9
65 | GWIRPVAKSRLWSFSPMEMI | -0.768 ± 0.62
66 | YFASCRTM | -0.193 ± 0.27
67 | GYTRGDDSGAVHSLSWVFAG | -0.361 ± 1.7
68 | SAFSLIGLIVMNAGK | 6.04 ± 0.076
69 | YIRIMLGMMPNLRERSRTRV | inactive
70 | KILCWNIFLPYKGVRGRFGM | 6.895 ± 0.053
71 | KHQGNMTTINNKRAARLLGP | inactive
72 | SWKIFIRIMTDYSIQFAYSY | 1.88 ± 0.098
73 | ANSVRWTCMLVIIFQYRPTS | 2.5 ± 0.15
74 | KLVLYEVFSSKKKHIFLSHQ | 0.586 ± 0.26
75 | CPVRSRIVVRCLYFSHMRST | 0.263 ± 1.1

Row | Substance | amyloid nucleation score
76 | GGPVREYTRMSPSVGVLDEA | 0.489 ± 0.86
77 | AESWCAGSKIIHSIGWSKDR | 0.589 ± 0.54
78 | IHRLSARCRLNI | 0.657 ± 0.42
79 | VRRCFFVYSVR | -0.979 ± 1.2
80 | HMLASNSRWNTAKGINWGFH | 0.758 ± 0.7
81 | DSMYF | 0.367 ± 0.53
82 | YGFKSRDKPFNL | 0.008 ± 0.44
83 | VKSSFNMSARVVLDENIHER | -0.067 ± 0.69
84 | RMLLRFYIATGYLWSIQNCR | inactive
85 | IKWANREALLLWVELGRLRW | -0.66 ± 0.84
86 | VVYHAFDALLNLCRSSYRGH | -0.811 ± 0.52
87 | IIGQYMQFAYFSVDRTL | 0.871 ± 0.38
88 | SIFSSNCNL | -0.36 ± 0.24
89 | VHEMNSRTDFYKIKKSGTLV | 0.158 ± 0.29
90 | FVYFTGIMIC | -0.46 ± 1
91 | ACHRTWKWVLRLRLLMRNNL | -0.712 ± 0.8
92 | AANSPELVGFSGGPKGCSRG | -0.137 ± 0.71
93 | GQPVFSLDCIYYLLYCFDAT | 0.595 ± 0.6
94 | DVAPLGCGEPCYGSY | -1.22 ± 1.4
95 | GGNDHVANLTCNNVAGSRGT | 4.33 ± 0.14
96 | SKIHYMF | -0.942 ± 0.57
97 | ISFSSYYNLVLDYLELSQCL | inactive
98 | RYICSYCYALCGFGDYYGGK | 0.24 ± 0.34
99 | ILGQYGALYSIGTHWFLFVI | -0.755 ± 0.37
100 | QFDVVMMWQTE | -0.189 ± 0.3

Row | Substance | amyloid nucleation score
101 | ARHSYN | inactive
102 | VFKESGSRGFVMYTGILSCQ | 0.507 ± 0.68
103 | FFINQRDLLS | -0.084 ± 0.46
104 | CKQRKCLGRIYVCEHISQSL | 0.461 ± 0.67
105 | NRSYNN | -0.243 ± 0.29
106 | CYCWPTTKKIPFKSL | -0.739 ± 1.9
107 | TGTSSPMRPLH | 0.532 ± 0.69
108 | NLWKVFCSCLNRDMKALGNW | -1.04 ± 0.51
109 | SIIYQVRRLCGSYVSILGSQ | 0.251 ± 0.69
110 | DQFLGYMANVAGVVP | 0.686 ± 0.34
111 | ICVRMSKFGCWTFSVKRGWQ | 0.335 ± 0.77
112 | CSAQTGVGSFPFGNIPVVSV | 0.789 ± 0.56
113 | VFFLGMVCAVWATFDVSYNG | 1.31 ± 0.35
114 | VSYNVRIGWAVYN | 0.89 ± 0.27
115 | SMRCKSYGCC | 0.3 ± 0.59
116 | NSWRRE | 1.02 ± 0.93
117 | AVQFCCWDMRTVIAS | 5.76 ± 0.066
118 | QGSDAYHSMNMQLWVSRTLT | 0.18 ± 0.36
119 | RLKYYNYERFRLVVLCRVHG | -0.053 ± 1.1
120 | SIYKSSEREVVY | inactive
121 | HLSLPNVPVALWKRSRPVTM | 1.26 ± 0.85
122 | FVGTKQWMARGLVNDVKPVH | -0.161 ± 0.45
123 | CDPGVKYSVSKAYRGWEYAL | -0.042 ± 1.2
124 | YNYDPRFVY | -0.246 ± 0.28
125 | VKSADIIVL | -0.357 ± 0.34

Row | Substance | amyloid nucleation score
126 | NGLFIRYSVVMAYSELEVVG | -0.162 ± 0.7
127 | NFLPVLVCQPLSWLLIPLLY | 0.309 ± 0.31
128 | LRTISNVDLLSVS | 0.138 ± 0.54
129 | MSVLAIMHLGPGHFAAAYY | 0.186 ± 0.4
130 | VFFYSRT | 3.02 ± 0.08
131 | ARFCRGGRIVSLMRVLTQTR | -0.931 ± 1.3
132 | GNYNSPFFRGSVNWNWCM | 0.485 ± 1.2
133 | MFRCFSDTKSNRTFCFMHTC | -0.143 ± 0.56
134 | EGACVKSRVWDRINVTGRSR | 1.25 ± 0.68
135 | RNMVSLRHSEDVICVQDTTP | -0.729 ± 0.34
136 | RCLTPVIRVIYFG | -0.13 ± 0.3
137 | AMKVFYDMWKTACY | -0.507 ± 0.7
138 | FCWLSMRAIRISSS | 0.531 ± 0.44
139 | ISMTDYVPSMHYAQTRVHLN | -0.085 ± 0.78
140 | GNWASIWPLGFELLSYICQE | -0.866 ± 0.49
141 | CNMVLFRVKYY | 2.67 ± 0.1
142 | NYTVRENGSK | -0.127 ± 0.27
143 | RLVSRPRSLLQCYWGLVC | 0.392 ± 1.4
144 | RVITYSV | -0.016 ± 1.4
145 | CIMPMIGKYVGVFSSGSSIS | inactive
146 | SRDASLDRPSRRV | -0.465 ± 0.49
147 | TRTTKMAH | 1.24 ± 0.45
148 | SDIMGTVLSYFGINLVYAPC | inactive
149 | EQLACQNVVSGCQSA | 0.277 ± 0.97
150 | RYFLEMISRYISRN | inactive

Row | Substance | amyloid nucleation score
151 | QFFTILCTGILLLNASTRLL | -0.777 ± 2.4
152 | TNRPAPLPSYRTILCK | 0.7 ± 0.97
153 | HRMGPQVKHIHNIGESKQSE | 0.822 ± 0.88
154 | VKMFMD | 0.644 ± 0.59
155 | PRLYGISRKSYVLSIFDVVS | 0.245 ± 0.21
156 | EHTRKGGSCNMLQRQPFCCT | 0.487 ± 0.52
157 | ALCLKGSMNVEFMIRTSGFN | 0.705 ± 0.51
158 | GLLMISISYLITRMVFMDNI | 0.412 ± 0.39
159 | QISVNQIY | inactive
160 | WFGTHCVLSYVSTFWSLQSV | -0.275 ± 0.24
161 | NNACMSSYVVGYRSIVMVK | 0.558 ± 1.1
162 | HFTCRTLITGSYSVTTLNVS | 5.23 ± 0.061
163 | SSNFSPLTIVVYNFCI | 7.744 ± 0.051
164 | LASEHNGASLICTLACTYLW | -0.642 ± 1
165 | PWNLIISSYASYYTCKVLVS | -0.563 ± 1.1
166 | LSAMWKSPMHRERRTWGM | 0.096 ± 0.42
167 | TIWDSRTSFVYS | 0.254 ± 0.56
168 | NMYNVRLFVPHFSLECLTWY | 2.87 ± 0.12
169 | GDDLQFT | 1.88 ± 0.69
170 | WLLMSCTHCSCLKMRIHWKG | -1.1 ± 2.4
171 | DRITLLRYPWKSIAISIDEG | 0.993 ± 0.36
172 | HRGTDLSLRSWVDWLHTLRG | 0.67 ± 0.57
